Reference: article PMC10786891, “Massively parallel profiling of RNA-targeting CRISPR-Cas13d”
Substitutions are numbered along the chain they refer to. Numbers in names are those of the source.

T1: EsCas13d, nuclease-dead (Eubacterium siraeum, UniProt B0MS50, R295A;H300A;R849A;H854A)
T1 sequence: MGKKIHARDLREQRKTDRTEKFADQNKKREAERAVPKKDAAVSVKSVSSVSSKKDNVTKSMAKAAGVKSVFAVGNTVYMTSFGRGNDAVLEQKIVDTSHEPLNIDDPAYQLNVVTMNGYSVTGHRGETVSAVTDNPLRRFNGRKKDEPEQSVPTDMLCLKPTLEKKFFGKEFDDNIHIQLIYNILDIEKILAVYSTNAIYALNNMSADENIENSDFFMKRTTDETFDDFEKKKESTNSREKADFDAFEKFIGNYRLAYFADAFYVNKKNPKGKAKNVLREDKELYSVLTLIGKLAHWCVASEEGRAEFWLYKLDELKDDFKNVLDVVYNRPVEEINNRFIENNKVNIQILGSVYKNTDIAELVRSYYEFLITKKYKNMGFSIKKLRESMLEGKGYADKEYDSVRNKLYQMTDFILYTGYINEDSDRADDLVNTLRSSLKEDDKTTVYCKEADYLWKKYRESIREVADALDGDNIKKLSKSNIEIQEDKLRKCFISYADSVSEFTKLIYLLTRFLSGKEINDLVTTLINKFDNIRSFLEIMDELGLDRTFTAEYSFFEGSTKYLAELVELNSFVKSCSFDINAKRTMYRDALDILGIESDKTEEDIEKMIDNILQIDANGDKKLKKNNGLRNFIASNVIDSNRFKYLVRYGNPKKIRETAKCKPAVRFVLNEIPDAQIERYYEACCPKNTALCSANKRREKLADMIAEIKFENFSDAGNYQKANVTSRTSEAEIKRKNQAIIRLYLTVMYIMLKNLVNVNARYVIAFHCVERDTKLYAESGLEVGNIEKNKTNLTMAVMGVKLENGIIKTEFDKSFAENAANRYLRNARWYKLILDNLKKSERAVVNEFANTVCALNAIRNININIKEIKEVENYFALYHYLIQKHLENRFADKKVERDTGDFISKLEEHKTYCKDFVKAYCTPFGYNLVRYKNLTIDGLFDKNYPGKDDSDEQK

B1: target 1 insC 3' of 18,insA 3' of 15 (mixed)
RNA 1: CACCCGUGCAAAAAUGCAGGGGUCUAAAACUGAGCGGAUAACCUCUCUAUGG
RNA 2: GGGAAUGGAUCCACAUCUACGAAUUCGUACCAUACGAGAAGGUUAUCCGCUCACCGAGAUCGGAAGAGCACACGU
B2: target 1 U8A,U10A (mixed)
RNA 1: B1 RNA 1
RNA 2: GGGAAUGGAUCCACAUCUACGAAUUCGUACCAUAGAGAGGUAAACCGCUCACCGAGAUCGGAAGAGCACACGU
B3: target 1 insA 3' of 22,insA 3' of 5 (mixed)
RNA 1: B1 RNA 1
RNA 2: GGGAAUGGAUCCACAUCUACGAAUUCGUACACAUAGAGAGGUUAUCCGACUCACCGAGAUCGGAAGAGCACACGU
B4: target 1 C4G,G15U (mixed)
RNA 1: B1 RNA 1
RNA 2: B2 RNA 2 with G37U, A42U, A44U, C48G
B5: target 1 G5A,G17C (mixed)
RNA 1: B1 RNA 1
RNA 2: B2 RNA 2 with G35C, A42U, A44U, G47A
B6: target 1 insA 3' of 4,insG 3' of 2 (mixed)
RNA 1: B1 RNA 1
RNA 2: GGGAAUGGAUCCACAUCUACGAAUUCGUACCAUAGAGAGGUUAUCCGCAUCGACCGAGAUCGGAAGAGCACACGU
B7: target 1 insG 3' of 16,insU 3' of 2 (mixed)
RNA 1: B1 RNA 1
RNA 2: GGGAAUGGAUCCACAUCUACGAAUUCGUACCAUAGAGGAGGUUAUCCGCUCUACCGAGAUCGGAAGAGCACACGU
B8: target 1 U3C,G12U (mixed)
RNA 1: B1 RNA 1
RNA 2: B2 RNA 2 with G40U, A42U, A44U, U49C
B9: target 1 insA 3' of 21,insG 3' of 7 (mixed)
RNA 1: B1 RNA 1
RNA 2: B3 RNA 2 with A31C, C32A, C47G, G48C, A49G
B10: target 1 C7G,G12A (mixed)
RNA 1: B1 RNA 1
RNA 2: B2 RNA 2 with G40A, A42U, A44U, C45G
B11: target 1 insC 3' of 3,insU 3' of 2 (mixed)
RNA 1: B1 RNA 1
RNA 2: B6 RNA 2 with A49U, U50C, G52U
B12: target 1 C6A,U8A (mixed)
RNA 1: B1 RNA 1
RNA 2: B2 RNA 2 with A42U, C46A
B13: target 1 U8C,A14C (mixed)
RNA 1: B1 RNA 1
RNA 2: B2 RNA 2 with A38C, A42U, A44C
B14: target 1 U8A,U10G (mixed)
RNA 1: B1 RNA 1
RNA 2: B2 RNA 2 with A42G
B15: target 1 insA 3' of 15,insC 3' of 10 (mixed)
RNA 1: B1 RNA 1
RNA 2: B1 RNA 2 with C35G, G36A, A37G, G38A, A40G, G42U, U44C
B16: target 1 U3G,U10G (mixed)
RNA 1: B1 RNA 1
RNA 2: B2 RNA 2 with A42G, A44U, U49G
B17: target 1 C4U,G5C (mixed)
RNA 1: B1 RNA 1
RNA 2: B2 RNA 2 with A42U, A44U, G47C, C48U
B18: target 1 insC 3' of 19,insG 3' of 3 (mixed)
RNA 1: B1 RNA 1
RNA 2: B7 RNA 2 with A34C, G35A, A36G, G37A, C51G, U52C
B19: target 1 insU 3' of 18,insA 3' of 15 (mixed)
RNA 1: B1 RNA 1
RNA 2: B1 RNA 2 with C35U
B20: target 1 A16G,U19C (mixed)
RNA 1: B1 RNA 1
RNA 2: B2 RNA 2 with U33C, A36G, A42U, A44U
B21: target 1 insU 3' of 22,insA 3' of 10 (mixed)
RNA 1: B1 RNA 1
RNA 2: B3 RNA 2 with A31U, U45A, C46U, G48C, A49G
B22: target 1 insA 3' of 15,insC 3' of 15 (mixed)
RNA 1: B1 RNA 1
RNA 2: B1 RNA 2 with C35G, G36A, A37G, G38A, A39C
B23: target 1 insC 3' of 13,insU 3' of 2 (mixed)
RNA 1: B1 RNA 1
RNA 2: B7 RNA 2 with G38A, A39G, G40C
B24: target 1 U19G,C21U (mixed)
RNA 1: B1 RNA 1
RNA 2: B2 RNA 2 with C31U, U33G, A42U, A44U
B25: target 1 insA 3' of 22,insG 3' of 21 (mixed)
RNA 1: B1 RNA 1
RNA 2: B1 RNA 2 with C31A, A32C, U33G, C35U, G36A, A37G, G38A, A39G
B26: target 1 G5U,G17U (mixed)
RNA 1: B1 RNA 1
RNA 2: B2 RNA 2 with G35U, A42U, A44U, G47U
B27: target 1 insU 3' of 20,insC 3' of 5 (mixed)
RNA 1: B1 RNA 1
RNA 2: B3 RNA 2 with A31C, C32A, A33U, A49C
B28: target 1 U19C,C22G (mixed)
RNA 1: B1 RNA 1
RNA 2: B2 RNA 2 with C30G, U33C, A42U, A44U
B29: target 1 insG 3' of 16,insG 3' of 14 (mixed)
RNA 1: B1 RNA 1
RNA 2: B1 RNA 2 with C35G, G36A, A37G, A40G
B30: target 1 insC 3' of 17,insG 3' of 9 (mixed)
RNA 1: B1 RNA 1
RNA 2: B1 RNA 2 with C35G, G36C, A40G, G42U, U44A, A45G

target: T1, EsCas13d, nuclease-dead; assay: crRNA (strand 1, pre-loaded); Mg2+; 40 mM Tris-HCl pH 7.5, 150 mM NaCl, 6 mM MgCl2, 1 mM DTT, 0.1% Tween-20, 0.2 mg/ml BSA; 25 C; 10 min per concentration, then washed; settings: tags: His6-TwinStrep-SUMO cleaved; N-terminal SNAP kept (SNAP-Surface 488); label: 3' end held by stalled T7 RNA polymerase

For B1, which Kd is on record?
Its Kd is 25.1 ± 1.2 nM.

Which Kd does the source give for B2 here?
The Kd was 12.5 ± 0.7 nM.

With B3 as the binder, how does the Kd read?
Its Kd is 7.2 ± 0.6 nM.

For B4, which Kd is on record?
Its Kd is 22 ± 8 nM.

How did the Kd turn out when B5 was run?
Its Kd is 80 ± 21 nM.

How did the Kd turn out when B6 was run?
The Kd was 7.7 ± 0.6 nM.

How did the Kd turn out when B7 was run?
The Kd was 15.1 ± 1.3 nM.

With B8 as the binder, how does the Kd read?
Its Kd is 19.4 ± 1.4 nM.

How did the Kd turn out when B9 was run?
The Kd was 14.9 ± 0.6 nM.

With B10 as the binder, how does the Kd read?
Its Kd is 15.4 ± 1.3 nM.

Which Kd does the source give for B11 here?
The Kd was 37 ± 5 nM.

Which Kd does the source give for B12 here?
The Kd was 14.4 ± 0.4 nM.

With B13 as the binder, how does the Kd read?
The Kd was 81 ± 14 nM.

For B14, which Kd is on record?
Its Kd is 18.2 ± 0.8 nM.

With B15 as the binder, how does the Kd read?
Its Kd is roughly 80 nM.

For B16, which Kd is on record?
The Kd was 35.2 ± 2.9 nM.

How did the Kd turn out when B17 was run?
Its Kd is 39 ± 4 nM.

How did the Kd turn out when B18 was run?
Its Kd is 26 ± 1.4 nM.

Which Kd does the source give for B19 here?
Its Kd is 20.5 ± 2.5 nM.

For B20, which Kd is on record?
The Kd was 78 ± 33 nM.

B21 was tested. Which Kd did it give?
The Kd was 43 ± 5 nM.

For B22, which Kd is on record?
Its Kd is 20.4 ± 1.6 nM.

How did the Kd turn out when B23 was run?
The Kd was 14.4 ± 1.3 nM.

Which Kd does the source give for B24 here?
The Kd was 11.1 ± 1.3 nM.

For B25, which Kd is on record?
The Kd was 43 ± 6 nM.

With B26 as the binder, how does the Kd read?
The Kd was 62 ± 8 nM.

How did the Kd turn out when B27 was run?
Its Kd is 36 ± 10 nM.

For B28, which Kd is on record?
The Kd was roughly 80 nM.

With B29 as the binder, how does the Kd read?
The Kd was 15.6 ± 1.3 nM.

B30 was tested. Which Kd did it give?
The Kd was 35 ± 6 nM.
